Test results as given in patent publication US20080305123A1.
“And” between values parts separate entries of the source, which are not always exact repeats. Equal entries are not always repeated.

Legend:
[1] = target: PsaA receptor on Detroit 562 human nasopharyngeal epithelial cells (human); assay: homologous competitor P4 in solution against P4-coated fluospheres on Detroit 562 cells
[2] = target: PsaA receptor on Detroit 562 human nasopharyngeal epithelial cells (human); assay: coated fluospheres at 1:50 dilution on Detroit 562 cells
[3] = target: PsaA receptor on Detroit 562 human nasopharyngeal epithelial cells (human); assay: competitor P4 in solution against P4-coated beads on Detroit 562 cells
[4] = target: PsaA receptor on Detroit 562 human nasopharyngeal epithelial cells (human); assay: competition of PsaA-coated bead adherence to Detroit 562 cells by P4 in solution (second of the three doses, printed 100 µg)
[5] = target: PsaA receptor on Detroit 562 human nasopharyngeal epithelial cells (human); assay: coated fluorospheres on Detroit 562 cells, 1640±210 beads/well
[6] = target: PsaA receptor on Detroit 562 human nasopharyngeal epithelial cells (human); assay: competition of PsaA-coated bead adherence to Detroit 562 cells by P4 in solution
[7] = target: PsaA receptor on Detroit 562 human nasopharyngeal epithelial cells (human); assay: cold chase with non-fluorescent PsaA-coated spheres against PsaA-coated fluospheres on Detroit 562 cells
[8] = target: PsaA receptor on Detroit 562 human nasopharyngeal epithelial cells (human); assay: time course on Detroit 562 cells, n=6, 180 min
[9] = target: PsaA receptor on Detroit 562 human nasopharyngeal epithelial cells (human); assay: 2,600 fluospheres/well on Detroit 562 cells, day 60 after labeling
[10] = target: PsaA receptor on Detroit 562 human nasopharyngeal epithelial cells (human); assay: 2,600 fluospheres/well on Detroit 562 cells, day 1 after labeling
[11] = target: PsaA receptor on Detroit 562 human nasopharyngeal epithelial cells (human); assay: time course on Detroit 562 cells, n=6, 20 min
[12] = target: PsaA receptor on Detroit 562 human nasopharyngeal epithelial cells (human); assay: adherence of unsaturated rPsaA fluospheres to Detroit 562 cells with P3 peptide added
[13] = target: PsaA receptor on Detroit 562 human nasopharyngeal epithelial cells (human); assay: time course on Detroit 562 cells, n=6, 140 min

Row | Substance | percent reduction in adherence [1] | adherence signal (FU) [2] [FU] | percent reduction in adherence [3] | % reduction in FU [4] [%] | adherence (mean FU) [5] [FU] | % reduction in FU [6] [%] | % inhibition of adherence of PsaA-coated fluospheres [7] [%] | mean adherence signal (FU) [8] [FU] | mean adherence (FU) [9] [FU] | mean adherence (FU) [10] [FU] | mean adherence signal (FU) [11] [FU] | fold enhancement of binding by P3 peptide [12] [fold] | mean adherence signal (FU) [13] [FU]
1 | P4 peptide (PsaA amino acid residues 251 to 278 with DD changed to KR) | 89.4% and 87.6% and 88.9% | > 100000 | 89.4% and 87.6% and 88.9% | 68 | 19300 | 23 | – | – | – | – | – | – | –
2 | recombinant pneumococcal surface adhesin A (rPsaA) of Streptococcus pneumoniae (from UniProt P0A4G2 20-309) (ligand) | – | > 100000 | – | – | – | – | < 31 | 17500 | 30600 | 30100 | 2320 | < 2.5 | 16600
